According to article PMC3419264, “ATPase Site Architecture Is Required for Self-Assembly and Remodeling Activity of a Hexameric AAA+ Transcriptional Activator” (Molecular Cell, 2012):

test system: T1, Nc1ncnc2c1ncn2[C@@H]1O[C@H](COP(=O)(O)OP(=O)(O)OP(=O)(O)O)[C@@H](O)[C@H]1O; experiment: steady-state ATPase assay, NADH-coupled regeneration system; assay type: biochemical, Escherichia coli; settings: 37 °C, without σ54, turnover given as Vmax (min^-1), maximal error 10%
T1 construct: AAA+ domain, residues 1-275; purified as in Joly et al. 2006; hexamer
Excerpt: steady-state ATPase assay, NADH-coupled regeneration system on PspF1-275

Row | Substance | Km | kcat
1 | PspF1-275 (Escherichia coli K-12; E43A) | 750 µM | 0.0228 ± 0.00167 s⁻¹
2 | PspF1-275 (Escherichia coli K-12; E43D) | 250 µM | 0.371 ± 0.08 s⁻¹
3 | PspF1-275 (Escherichia coli K-12; E43Y) | 1,250 μM | 0.0415 ± 0.00283 s⁻¹
4 | PspF1-275 (Escherichia coli K-12; E118D) | 800 µM | 0.3372 ± 0.0617 s⁻¹
5 | PspF1-275 (Escherichia coli K-12; L9A) | 2,300 μM | 0.3453 ± 0.0425 s⁻¹
6 | PspF1-275 (Escherichia coli K-12; L44A) | 310 µM | 0.3027 ± 0.0403 s⁻¹
7 | PspF1-275 (Escherichia coli K-12; R122A) | 300 µM | 0.021 ± 0.0005 s⁻¹
8 | PspF1-275 (Escherichia coli K-12; R162A) | 90 µM | 0.003 ± 0.00033 s⁻¹
9 | PspF1-275 (Escherichia coli K-12; R162K) | 200 µM | 0.0313 ± 0.00483 s⁻¹
10 | PspF1-275 (Escherichia coli K-12; Y126A) | 650 µM | 0.1992 ± 0.0295 s⁻¹
